# Assay results from a protein production outcome set (Wang et al. 2014).
# Assay: label from the status in PepcDB records
row,Sequence,protein production
1,AADPVVVPANMEPLTIEGNRFVTLCIMIRTTPWEVSRDVKLHPRDEVDWHTLEGVRALREAFATNNPNGRLTWGFTMNALEDGRKNYREIRDYVVECQKKYGDEVTYFPGYFPAMYLPRERVNREMSEAIEIISKMVGNGYRPQSIMGGFLSADNLRYLAEKENIHVAHAVIWSQHNIDGGGADGSPSYPFYPSTEHFCKPAQGKSDFIDCVNLDGWTMDFICARRSGQTGHGIDGYNSRRGVGPIETYKGWGLDLGHREVMHTEAIHFDKGLELNGFGWVANIWEAQMVHEFGKDLICDAMKMWVTGTKERWPDTHFVTFGEFGELWRKQYKSNDDWNYRFVERGSGLGDSYNNLEIKWFMNKEFRLALLRDWHTKNSPAYVIDFTRYDLQAHEPADPSPEKPAKDWSLINKINQKALRPQDKPVLIDKLEKEDQDLIRKYYPELLK,not failed
2,AAGIDQYALKEFTADFTQFHIGDTVPAMYLTPEYNIKQWQQRNLPAPDAGSHWTYMGGNYVLITDTEGKILKVYDGEIFYHR,not failed
3,AAGSENTNYFISLEQGEFVLTLVERGPVQEMPFFIELLDVLHDANLPVPYALRTTDGQALRELAGKPALLQPRLPGKHISEPNTQHCVQIGELLANLHLATREQVLERKTDRGLDWMLSEGRNFLSHLGETQRALLEKSLQEIEDLKPQIMALPRANLHADLFRDNVLFEGTHLTGLIDFYNACSGPMLYDLAIALNDWCSRENG,failed
4,AAKGNMQCNIFVPAGTSKGKTTQTRLYGANCIEVEGTREDVALAAIESSVTHGSHYVGHNWHPLFIEGVKSIAYEIWEQCGYKAPDNFVVPAGNGSLLAGAYIGFSELLKGGEISKLPRLFGIQSESIQPFVQTFNNKEINITSEDTIAEGIKIKRSSRMNEIVQFVKETNGNFISVNEQQIQSALKEMGAQGYFIEPTSATAFAGIAQLIKTQEIKPDELTVGVVTGNGLKATNSIEHLI,failed
5,AATDIHVHFRTPGETEKEDFGSGSLSAIYGGTTYVMDMPNNRFPITDYNAFGDKLGSIDSTSFADFSLYSMETGKNAMLLDRRSIGLKVYLGGSTNSTGTEVIEEGDIRKINEMNYPVVFHGESERCLKTHQMEEKNLRDHNLARPIDCEIEAAKYVSGLDIKTKIMAHVSSPDVTGNFLREVTPHHLLLNDEMPLGSFGKVNPPLRDSRTQKRLLDDYISGKFDILSSDHAPHTEDDKREFEFAKSGIIGVETRVPLFLALAQKKIVPLDVLYRTAIENPPSIFGIKKGKIEIGYDADFMVIDFTSMKRINDNRLHSKFPVSPFNGMDAI,failed
6,ACDNDTEPGGTAVEKMAGDWWVTVNAFIDGKEVEDPFGAGHLQMSTYNTASNSETEMWLDDLGNFWEYKLKVNVNYAARTFSTTGFVDNVTYESKVKITDGKVLEKAATTPSGMPADSIVYMVQFDDDEDGLTYKVSGFRRTGFPADDF,not failed
7,ACTQPSDWVPPAKNDALVIALKKVIGGRLSDAFHIRDKLQRRDAIAAVKDDVIQQLAGRLEVEGWNLAELLKEFGELEYRTMRDALLDTKVRIDGRSLEAVRP,not failed
8,ADDFAMEMGLACVVCRQMTVASGNQLVECQECHNLYHQDCHKPQVTDKEVNXPSRGVVLCPGTRQMKRMAQKNQK,not failed
9,ADELVMSNLHSKENYDKYSEPRGYPKGERSLNFEELKDWGPKNVIKMSTPAVNKMPHSFANLPLRFGRNVQEERSAGATANLPLRSGRNMEVSLVRRVPNLPQRFGRTTTAKSVCRMLSDLCQGSMHSPCANDLFYSMTCQHQEIQNPDQKQSRRLLFKKIDDAELKQEK,failed
10,ADLGRKITSALRSLSNATIINEEVLNAMLKEVCTALLEADVNIKLVKQLRENVKSAIDLEEMASGLNKRKMIQHAVFKELVKVKVY,not failed
11,ADNRAKKHGHADLSIYREWVDEHPTVFTGYDELTTDSKVLGLLSAGNKVNEIKAGEEVEVILEASPLYAEAGGQLGDRGQILMGDTVLKVNDVQKIGKKLWVHKATVAQGGLSVGDVVTAQVDSDWRHAARQAHTGTHLIHAALRQVLGPTAVQAGSMNKPGYLRFDFNYTESLTPRQLEEIQNITNQAVDSDWDVNTIETSLEEAKAMGALALFGENYGSEVRVIEVGGPFSIELCGGTHVTHSSQIGPVAILGESSVGSGVRRIEAYTGLDSFKYLAKEQALVENIASSMKVKPEELPDRIAALTQKLKDAEKAIADMRSAQLMAQATGLVAGAIEVNGVKLVAQRVSDVENMGDLRSLAADIKQRLDDVPAVVALVGEDASGKAPFVVGATKAAVSAGYKANAYAKILGQYIEGNGGGKPDMAQGSARNSSGFDQGIAAVKAEMSA,failed
12,AEDNLGPLPENWEMAYTENGEVYFIDHNTKTTSWLDPRCLNKQQ,not failed
13,AELQMLLEEEIPSGKRALIESYQNLTRVADYCENNYIQATDKRKALEETKAYTTQSLASVAYQINALANNVLQLLDIQASQLRRMESSINHISQTVDIHKEKVARREIGILTTNKNTSRTHKIIAPANMERPVRYIRKPIDYTVLDDVGHGVKWLKAKHGNNQPARTGTLSRTN,failed
14,AEPTLYGRYENIKVLEIGQTFKAKMDTGALTASLSAKDIELFQRDGDDWVRFRLATKGADDKVYEHKVSRISKIKGRAEGDDEDDEGINPAKRPVVDLELCLGNKKRTVEVNLVDRSHFNFPLLIGAKALREFGAAINPARRYTADEP,failed
15,AFAVLTTAGSRPVLSFLWVEPAARRQGLARELLMALAQQFPGIGTSVTVPETFTPLFAAAGYTPLSLQQYEMTMDLADAKSA,failed
16,AHSSLGAPVHLWGTEEVAAWLEHLSLCEYKDIFTRHDIRGSELLHLERRDLKDLGVTKVGHMKRILCGIKELSRSAPAVEA,failed
17,AIAAADISESSGADCKGDPRNSAKLDADYPLRVLYCGVCSLPTEYCEYMPDVAKCRQWLEKNFPNEFAKLTVENSPKQEAGISEGQGTAGEEEEKKKQKRGGRGQIKQKKKTVPQKVTIAKIPRAKKKYVTRVCGLATFEIDLKEAQRFFAQKFSCGASVTGEDEIIIQGDFTDDIIDVIQEKWPEVDDDSIEDLGEVKK,failed
18,AIAAELGLNEHHQNEVINYMRFARSKRGLRLKTVDSCFQDLKESRLVEDTFTIDEVSEVLNGLQAVVHSEVESELINTAYTNVLLLRQLFAQAEKWYLKLQTDISELENQELLEQVAEFEKAEITSSNKKPILDVTKPKLAPLNEGGTAELLNEEILRLQEENEKLKSRLKTIEIQATNALDEKSKLEKALQDLQLDQGNQKDFIKAQDLSNLENTVAALKSEFQKTLNDKTENQKSLEENLATAKHDLLRVREQLHMAEKELEKKFQQTAAYRNMKEILTKKNDQIKDLRKRLAQYEPED,failed
19,AIAAEMKTYSHRTMPSACTLVMCSSVESGLPGRDGRDGREGPRGEKGDPGLPGAAGQAGMPGQAGPVGPKGDNGSVGEPGPKGDTGPS,failed
20,AIAEEDEFIGEKTFQRYCAEFIKHSQQIGDSWEWRPSKDCSDGYMCKIHFQIKNGSVMSHLGASTHGQTCLPMEEAFELPLDDCEVIETAAASEVIKYEYHVLYSCSYQVPVLYFRASFLDGRPLTLKDIWEGVHECYKMRLLQGPWDTITQQEHPILGQPFFVLHPCKTNEFMTPVLKNSQKINKNVNYITSWLSIVGPVVGLNLPLSYAKATSQDERNVP,failed
21,AIAITGETEPACVEDASQLAEQRNGAPVMEAGCAAVPVEANATKRGYWRQRTLHSWFIGRKPQRTCIAVDIDEVLAFFVPELCAFHNKRYGTRLQATDFHSYRFAEVWGGTDTDAIRKVHEFFRTPAFQELQPIPGAKQVLQSRLARFRFVVVTSRQLVIEQETRAWLDKHFSGIFEAIYLGNQWALHPNGEHGTGVGSAAQEPQRLFANRRRKSQVCKACGAAVLIDDLPHNLLDCSENGVFGVLFDFQGQYGWSKSPAFESKDIAVVHSWEAVGELLDRL,failed
22,AIANSSVSTHGTGDCPVNCTKSEDFAPSKLGTKEYWDGAYKRELQTYKDIGDVGEIWFGEESMHRVIRWMEAQNISENAAILDIGTGNGMFLVELARHGFSNLTGIDYSKAALELTTNILVEEGLKNINIQVEDFLNPSTELKGFDVCIDKGTFDAISLNPEDREEAKKHYVTSLRAVMRPNGFFIITSCNWTKEQLLEIFKPGFELVRELPTPNFQFGGVTGNSVTALVFKQTD,failed
